Data on six molecules can be found in patent US20050214772, “Thio modified aptamer synthetic methods and compositions” (Board Of Regents, The University Of Texas System, published 2005).

The target of data set [1] is NF-IL6 (C/EBPbeta) tryptic core domain bZIP (TCD) (UniProt P17676). Kind of data set: FP. Particulars: Kobs, direct titration, normal phosphate backbone.
Data set [2] addresses T1, NF-kB p50 homodimer (UniProt P19838 P19838:1-433). Description: EMSA; competition with 32P-IgkB; specificity lost on full thiolation. The following applies: chain copies: 2 (stated). The protocol:
In standard competitive binding assays, ³²P-IgκB promoter element ODN duplex was incubated with recombinant p50 or p65 and competitor oligonucleotide (A) phosphodiester CK-1; (B) phosphorothioate CK-1. The reactions were then run on a nondenaturing polyacrylamide gel, and the amount of radioactivity bound to protein and shifted in the gel was quantitated by direct counting. […] It is the recognition that [S]-ODNs with large numbers of phosphorothioate linkages are “sticky” and tend to bind with poor specificity to proteins that led to one of the embodiments of the present invention. Using the method disclosed herein it was determined that if the number of phosphorothioate linkages is reduced to only 2-4, specificity can be restored, but binding is not enhanced.
(Mobility shift assays separate free from complexed probe on a gel.)

Data set [3] concerns the target T2, c-Rel homodimer (UniProt Q04864 Q04864:2-619).
T2 sequence: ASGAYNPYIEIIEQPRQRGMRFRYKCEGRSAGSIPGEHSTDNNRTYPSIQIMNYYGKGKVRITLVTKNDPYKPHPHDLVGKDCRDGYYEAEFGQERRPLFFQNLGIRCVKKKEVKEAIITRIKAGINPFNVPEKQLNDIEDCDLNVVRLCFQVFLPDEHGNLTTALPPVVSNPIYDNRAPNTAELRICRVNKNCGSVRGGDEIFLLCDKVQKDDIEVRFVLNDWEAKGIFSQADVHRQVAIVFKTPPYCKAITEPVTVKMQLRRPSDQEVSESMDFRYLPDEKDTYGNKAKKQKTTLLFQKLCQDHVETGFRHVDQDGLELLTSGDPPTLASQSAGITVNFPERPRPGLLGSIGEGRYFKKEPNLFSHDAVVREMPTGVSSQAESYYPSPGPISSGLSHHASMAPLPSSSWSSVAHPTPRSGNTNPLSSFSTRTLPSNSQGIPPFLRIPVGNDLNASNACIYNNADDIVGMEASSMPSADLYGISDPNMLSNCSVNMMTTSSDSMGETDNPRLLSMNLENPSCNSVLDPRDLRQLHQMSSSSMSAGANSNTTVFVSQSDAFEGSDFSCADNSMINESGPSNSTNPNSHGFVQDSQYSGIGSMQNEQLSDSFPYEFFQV
Kind of data set: EMSA; binds and competes. Particulars: chain copies: 2 (stated).

Data set [4] has as its target T2, c-Rel homodimer. Kind of data set: EMSA; single-copy site behaves similarly to CK-1. The following applies: chain copies: 2 (stated).
The target in data set [5] is T1, NF-kB p50 homodimer. Kind of data set: EMSA; full monothiolation loses specificity. Particulars: chain copies: 2 (stated).
Data set [6] has as its target T1, NF-kB p50 homodimer. Description: EMSA; labeled probe in competition assays. Particulars: chain copies: 2 (stated); label: 32P.

T1 sequence (P19838 1-433, one chain of several): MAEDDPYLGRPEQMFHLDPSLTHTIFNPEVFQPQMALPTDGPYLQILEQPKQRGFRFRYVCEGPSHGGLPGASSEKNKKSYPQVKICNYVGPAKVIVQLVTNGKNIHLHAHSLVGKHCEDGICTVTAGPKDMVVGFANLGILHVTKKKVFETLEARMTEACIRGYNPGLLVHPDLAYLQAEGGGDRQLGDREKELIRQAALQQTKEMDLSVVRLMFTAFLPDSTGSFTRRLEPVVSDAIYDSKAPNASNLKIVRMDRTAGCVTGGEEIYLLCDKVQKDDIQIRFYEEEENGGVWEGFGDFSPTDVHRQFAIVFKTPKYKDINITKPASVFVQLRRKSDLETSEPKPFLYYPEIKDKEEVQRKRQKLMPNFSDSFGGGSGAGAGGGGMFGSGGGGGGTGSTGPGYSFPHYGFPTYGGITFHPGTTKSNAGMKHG
Chain of NF-IL6 (C/EBPbeta) tryptic core domain bZIP (TCD) (P17676 266-345): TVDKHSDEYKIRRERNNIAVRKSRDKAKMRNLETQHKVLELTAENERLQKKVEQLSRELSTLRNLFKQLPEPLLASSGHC

As for “TGCAGATTGCGCAATCTGCA (double strand) [C/EBPbeta palindromic 20-mer]”, the Kd (as a rule, a measure of binding affinity in units of concentration) in data set [1] came out at 10 nM.

B1: CK-1 phosphorothioate duplex (dsDNA)
DNA 1: CCAGGAGATTCCACCCAGGAGATTCCACCCAGGAGATTCCAC
DNA 2: GTGGAATCTCCTGGGTGGAATCTCCTGGGTGGAATCTCCTGG
modifications: PS all linkages
For B1, the binding result with NF-kB p50 homodimer [2] was “binds”.

B2: CK-1 42-mer phosphodiester duplex (dsDNA)
DNA 1: CCAGGAGATTCCACCCAGGAGATTCCACCCAGGAGATTCCAC
DNA 2: GTGGAATCTCCTGGGTGGAATCTCCTGGGTGGAATCTCCTGG
For the molecule B2, the binding result with c-Rel homodimer [3] is listed as “binds”.

B3: CK-14 phosphodiester duplex (dsDNA)
DNA 1: CCAGGAGATTCCAC
DNA 2: GTGGAATCTCCTGG
For B3, in the data set with c-Rel homodimer [4], the binding result was “binds”.

B4: CK-14 fully monothiolated duplex (dsDNA)
DNA 1: CCAGGAGATTCCAC
DNA 2: GTGGAATCTCCTGG
modifications: PS all linkages
B4: in the data set with NF-kB p50 homodimer [5], the binding result was “binds”.

B5: IgkB promoter element 22-mer (dsDNA)
DNA 1: AGTTGAGGGGACTTTCCCAGGC
DNA 2: GCCTGGGAAAGTCCCCTCAACT
On to B5, for which the binding result with NF-kB p50 homodimer [6] was “binds”.
